According to US20240327535A1 (EISAI R AND D MANAGEMENT, published 2024):
Where two headings read alike, the source gives them in different places.

Tests used:
[1] = molecular target: T1, human BCMA on NCI-H929, OPM2 and Raji cells (human, UniProt Q02223 1-184); experiment: flow cytometry, NCI-H929 cells
T1 construct: endogenous BCMA of human cell lines; also called TNFRSF17; CD269
T1 chain: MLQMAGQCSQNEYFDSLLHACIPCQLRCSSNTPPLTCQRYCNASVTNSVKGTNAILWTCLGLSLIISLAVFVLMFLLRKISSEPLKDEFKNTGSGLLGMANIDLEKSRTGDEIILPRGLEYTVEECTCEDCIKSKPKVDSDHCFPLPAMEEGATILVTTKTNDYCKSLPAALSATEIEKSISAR

[2] = molecular target: T1, human BCMA on NCI-H929, OPM2 and Raji …; experiment: flow cytometry, OPM2 cells
[3] = molecular target: T1, human BCMA on NCI-H929, OPM2 and Raji …; experiment: flow cytometry, Raji cells
[4] = molecular target: T1, human BCMA on NCI-H929, OPM2 and Raji …; experiment: flow cytometry, NCI-H929 cells
[5] = molecular target: T1, human BCMA on NCI-H929, OPM2 and Raji …; experiment: cell-based or functional assay
[6] = molecular target: T1, human BCMA on NCI-H929, OPM2 and Raji …; experiment: flow cytometry on NCI-H929 cells (BCMA high), fluorescent anti-human IgG1 secondary antibody, MFI against test article concentration
[7] = molecular target: T2, extracellular domain of human BCMA (human, UniProt Q02223 1-54); experiment: Octet BLI; Fab 200 nM
T2 construct: amine-linked to Octet AR2G tips; also called hsBCMA; BCMA (human)
T2 sequence: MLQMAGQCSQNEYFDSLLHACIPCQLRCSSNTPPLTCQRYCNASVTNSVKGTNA

[8] = molecular target: T3, extracellular domain of rhesus monkey BCMA (rhesus monkey, UniProt F7FFA0 1-53); experiment: Octet BLI; Fab 200 nM
T3 construct: extracellular domain; also called RhBCMA

[9] = molecular target: T2, extracellular domain of human BCMA; experiment: Octet BLI; Fab 200 nM; remark: listed apart in the source
[10] = molecular target: T3, extracellular domain of rhesus monkey …; experiment: Octet BLI; Fab 200 nM; remark: listed apart in the source
[11] = molecular target: T2, extracellular domain of human BCMA; experiment: Octet BLI; Fab 200 nM; remark: listed apart in the source
[12] = molecular target: T3, extracellular domain of rhesus monkey …; experiment: Octet BLI; Fab 200 nM; remark: listed apart in the source
[13] = molecular target: T2, extracellular domain of human BCMA; experiment: Octet BLI; Fab 200 nM; remark: listed apart in the source
[14] = molecular target: T3, extracellular domain of rhesus monkey …; experiment: Octet BLI; Fab 200 nM; remark: listed apart in the source
[15] = molecular target: T2, extracellular domain of human BCMA; experiment: Octet BLI; Fab 200 nM; remark: listed apart in the source
[16] = molecular target: T3, extracellular domain of rhesus monkey …; experiment: Octet BLI; Fab 200 nM; remark: listed apart in the source

T3 sequence (F7FFA0 entry or part of it): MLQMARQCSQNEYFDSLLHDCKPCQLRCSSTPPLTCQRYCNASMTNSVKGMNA

B1: AB212 (antibody, human IgG1, kappa, V domains shown)
VH: QVQLVQSGAEVKKPGSSVKVSCKASGGTFSNYWIHWVRQAPGQGLEWMGGTYRSHSDTNYNQKFKSRVTITADKSTSTAYMELSSLRSEDTAVYYCARGAIYHGYDVIENWGQGTLVTVSS
VL: DIQMTQSPSSLSASVGDRVTITCRASQSISSYLNWYQQKPGKAPKLLIYATSNLQIGVPSRFSGSGSGTDFTLTISSLQPEDFATYYCQQFRRLPWTFGQGTKLEIKR
notes: IgG1 kappa
[1]
  Kd: 9.68 nM
[2]
  Kd: 4.33 nM
[3]
  Kd: 16 nM

B2: AB214-ADL1-D2-02 (antibody, human IgG1, kappa, V domains shown)
VH: QVQLVQSGAEVKKPGSSVKVSCKASGGTFSNYWIHWVRQAPGQGLEWMGATYRSQSDTYYNQKYKSRVTITADKSTSTAYMELSSLRSEDTAVYYCARGAVYHGYDVIDNWGQGTLVTVSS
VL: DIQMTQSPSSLSASVGDRVTITCRASQSISSYLNWYQQKPGKAPKLLIYATSNLQIGVPSRFSGSGSGTDFTLTISSLQPEDFATYYCQQYRRIPWTFGQGTKLEIKR
modifications: ADL1-D2 linker-payload on cysteine residues of the antibody, DAR 4.12
[4]
  Kd: 1.02 nM
[5]
  GI50 (nM) OPM2.1, cell viability: 1.54 nM
  LD50 (nM) OPM2.1, cell viability: 25.1 nM
[6]
  EC50 (read off the curve): ~1 nM

B3: AB200 (antibody, human IgG1, kappa, V domains shown)
VH: QVQLVQSGAEVKKPGSSVKVSCKASGGTFSNYWMHWVRQAPGQGLEWMGATYRGHSDTYYNQKFKGRVTITADKSTSTAYMELSSLRSEDTAVYYCARGAIYDGYDVLDNWGQGTLVTVSS
VL: DIQMTQSPSSLSASVGDRVTITCSASQDISNYLNWYQQKPGKAPKLLIYYTSNLHSGVPSRFSGSGSGTDFTLTISSLQPEDFATYYCQQYRKLPWTFGQGTKLEIKR
notes: IgG1 kappa
[1]
  Kd: 50.5 nM
[2]
  Kd: 10 nM
[3]
  Kd: 14 nM

B4: AB200-ADL1-D2-02 (antibody, human IgG1, kappa, V domains shown)
VH: QVQLVQSGAEVKKPGSSVKVSCKASGGTFSNYWMHWVRQAPGQGLEWMGATYRGHSDTYYNQKFKGRVTITADKSTSTAYMELSSLRSEDTAVYYCARGAIYDGYDVLDNWGQGTLVTVSS
VL: DIQMTQSPSSLSASVGDRVTITCSASQDISNYLNWYQQKPGKAPKLLIYYTSNLHSGVPSRFSGSGSGTDFTLTISSLQPEDFATYYCQQYRKLPWTFGQGTKLEIKR
modifications: ADL1-D2 linker-payload on cysteine residues of the antibody, DAR 3.92
notes: antibody-drug conjugate; also called AB200 ADC incorporating the ADL1-D2 linker-payload
[4]
  Kd: 9.66 nM
[6]
  EC50 (read off the curve): ~9 nM

B5: AB216-ADL1-D2-02 (antibody, human IgG1, kappa, V domains shown)
VH: QVQLVQSGAEVKKPGSSVKVSCKASGGTFSNYWIHWVRQAPGQGLEWMGATYRIQSDTYYNQKYKSRVTITADKSTSTAYMELSSLRSEDTAVYYCARGAVYHGYDVIDNWGQGTLVTVSS
VL: DIQMTQSPSSLSASVGDRVTITCRASQSISSYINWYQQKPGKAPKLLIYATSNLQIGVPSRFSGSGSGTDFTLTISSLQPEDFATYYCQQYRRLPWSFGQGTKLEIKR
modifications: ADL1-D2 linker-payload on cysteine residues of the antibody, DAR 3.8
[4]
  Kd: 0.836 nM
[5]
  GI50 (nM) OPM2.1, cell viability: 1.56 nM
  LD50 (nM) OPM2.1, cell viability: 14 nM
[6]
  EC50 (read off the curve): ~0.7 nM

B6: AB217-ADL1-D2-02 (antibody, human IgG1, kappa, V domains shown)
VH: QVQLVQSGAEVKKPGSSVKVSCKASGGTFTNYWIHWVRQAPGQGLEWMGATYRSHSDTYYAQKYKSRVTITADKSTSTAYMELSSLRSEDTAVYYCARGAVYHGYDVIDNWGQGTLVTVSS
VL: DIQMTQSPSSLSASVGDRVTITCRASQSISSYINWYQQKPGKAPKLLIYATSNLQSGVPSRFSGSGSGTDFTLTISSLQPEDFATYYCQQYRRIPWTFGQGTKLEIKR
modifications: ADL1-D2 linker-payload on cysteine residues of the antibody, DAR 3.7
[4]
  Kd: 0.366 nM
[5]
  GI50 (nM) OPM2.1, cell viability: 2.17 nM
  LD50 (nM) OPM2.1, cell viability: 16.3 nM
[6]
  EC50 (read off the curve): ~0.4 nM

B7: AB200-(2Vk35)_R2-VH-v6 (Fab, V domains shown)
VH: QVQLVQSGAEVKKPGSSVKVSCKASGGTFTNYWIHWVRQAPGQGLEWMGATYRSHSDTYYAQKYKSRVTITADKSTSTAYMELSSLRSEDTAVYYCARGAVYHGYDVIDNWGQGTLVTVSS
VL: DIQMTQSPSSLSASVGDRVTITCRASQSISSYINWYQQKPGKAPKLLIYATSNLQSGVPSRFSGSGSGTDFTLTISSLQPEDFATYYCQQYRRIPWTFGQGTKLEIKR
notes: also called AB200_VH2-06_VK2-35
[7]
  Kd: 1.66 nM
[8]
  Kd: 9.6 nM
[9]
  Kd: 1.29 nM
[10]
  Kd: 9.36 nM

B8: AB218 (antibody, human IgG1, kappa, V domains shown)
VH: QVQLVQSGAEVKKPGSSVKVSCKASGGTFSNYWIHWVRQAPGQGLEWMGATYRSQSTTYYNQKFKSRVTITADKSTSTAYMELSSLRSEDTAVYYCARGAVYHGYDVIDNWGQGTLVTVSS
VL: DIQMTQSPSSLSASVGDRVTITCRASQSISSYLNWYQQKPGKAPKLLIYATSNLQIGVPSRFSGSGSGTDFTLTISSLQPEDFATYYCQQFRRLPWTFGQGTKLEIKR
notes: IgG1 kappa
[1]
  Kd: 0.987 nM
[2]
  Kd: 0.687 nM
[3]
  Kd: 2.15 nM

B9: AB200-(2Vk30)_R2-VH-v37 (Fab, V domains shown)
VH: QVQLVQSGAEVKKPGSSVKVSCKASGGTFSNYWIHWVRQAPGQGLEWMGATYRSQSDTYYNQKYKSRVTITADKSTSTAYMELSSLRSEDTAVYYCARGAVYHGYDVIDNWGQGTLVTVSS
VL: DIQMTQSPSSLSASVGDRVTITCRASQSISSYLNWYQQKPGKAPKLLIYATSNLQIGVPSRFSGSGSGTDFTLTISSLQPEDFATYYCQQYRRIPWTFGQGTKLEIKR
notes: also called AB200_VH2-37_VK2-30
[11]
  Kd: 0.81 nM
[12]
  Kd: 6.05 nM
[7]
  Kd: 1.14 nM
[8]
  Kd: 6.33 nM

B10: AB200-(2Vk31)_R2-VH-v27 (Fab, V domains shown)
VH: QVQLVQSGAEVKKPGSSVKVSCKASGGTFSNYWIHWVRQAPGQGLEWMGATYRSQSTTYYNQKFKSRVTITADKSTSTAYMELSSLRSEDTAVYYCARGAVYHGYDVIDNWGQGTLVTVSS
VL: DIQMTQSPSSLSASVGDRVTITCRASQSISSYLNWYQQKPGKAPKLLIYATSNLQIGVPSRFSGSGSGTDFTLTISSLQPEDFATYYCQQFRRLPWTFGQGTKLEIKR
notes: also called AB200_VH2-27_VK2-31
[13]
  Kd: 7.13 nM
[14]
  Kd: 15.3 nM
[7]
  Kd: 6.43 nM
[8]
  Kd: 13.9 nM

B11: AB200-(2Vk31)_R2-VH-v20 (Fab, V domains shown)
VH: QVQLVQSGAEVKKPGSSVKVSCKASGGTFSNYWIHWVRQAPGQGLEWMGGTYRSHSDTNYNQKFKSRVTITADKSTSTAYMELSSLRSEDTAVYYCARGAIYHGYDVIENWGQGTLVTVSS
VL: DIQMTQSPSSLSASVGDRVTITCRASQSISSYLNWYQQKPGKAPKLLIYATSNLQIGVPSRFSGSGSGTDFTLTISSLQPEDFATYYCQQFRRLPWTFGQGTKLEIKR
notes: also called AB200_VH2-20_VK2-31
[13]
  Kd: 42 nM
[14]
  Kd: 93.8 nM
[7]
  Kd: 38.6 nM
[8]
  Kd: 79.3 nM

B12: AB215-ADL1-D2-02 (antibody, human IgG1, kappa, V domains shown)
VH: QVQLVQSGAEVKKPGSSVKVSCKASGGTFTNYWIHWVRQAPGQGLEWMGGTYRSHSTTYYNQKFKSRVTITADKSTSTAYMELSSLRSEDTAVYYCARGAVYHGYDVIDNWGQGTLVTVSS
VL: DIQMTQSPSSLSASVGDRVTITCRASQSISSYLNWYQQKPGKAPKLLIYATSNLQIGVPSRFSGSGSGTDFTLTISSLQPEDFATYYCQQYRRIPWTFGQGTKLEIKR
modifications: ADL1-D2 linker-payload on cysteine residues of the antibody, DAR 3.96
[4]
  Kd: 1.3 nM
[5]
  GI50 (nM) OPM2.1, cell viability: 4.04 nM
  LD50 (nM) OPM2.1, cell viability: 73.7 nM
[6]
  EC50 (read off the curve): ~1 nM

B13: AB216 (antibody, human IgG1, kappa, V domains shown)
VH: QVQLVQSGAEVKKPGSSVKVSCKASGGTFSNYWIHWVRQAPGQGLEWMGATYRIQSDTYYNQKYKSRVTITADKSTSTAYMELSSLRSEDTAVYYCARGAVYHGYDVIDNWGQGTLVTVSS
VL: DIQMTQSPSSLSASVGDRVTITCRASQSISSYINWYQQKPGKAPKLLIYATSNLQIGVPSRFSGSGSGTDFTLTISSLQPEDFATYYCQQYRRLPWSFGQGTKLEIKR
notes: IgG1 kappa
[1]
  Kd: 3.05 nM
[2]
  Kd: 2.27 nM
[3]
  Kd: 6.43 nM

B14: AB200-(2Vk31)_R2-VH-v3 (Fab, V domains shown)
VH: QVQLVQSGAEVKKPGSSVKVSCKASGGTFTNYWIHWVRQAPGQGLEWMGGTYRSHSTTYYNQKFKSRVTITADKSTSTAYMELSSLRSEDTAVYYCARGAVYHGYDVIDNWGQGTLVTVSS
VL: DIQMTQSPSSLSASVGDRVTITCRASQSISSYLNWYQQKPGKAPKLLIYATSNLQIGVPSRFSGSGSGTDFTLTISSLQPEDFATYYCQQFRRLPWTFGQGTKLEIKR
notes: also called AB200_VH2-03_VK2-31
[13]
  Kd: 2.55 nM
[14]
  Kd: 5.73 nM
[7]
  Kd: 2.7 nM
[8]
  Kd: 5.03 nM

B15: AB200-(2Vk44)_R2-VH-v75 (Fab, V domains shown)
VH: QVQLVQSGAEVKKPGSSVKVSCKASGGTFSNYWIHWVRQAPGQGLEWMGATYRIQSDTYYNQKYKSRVTITADKSTSTAYMELSSLRSEDTAVYYCARGAVYHGYDVIDNWGQGTLVTVSS
VL: DIQMTQSPSSLSASVGDRVTITCRASQSISSYINWYQQKPGKAPKLLIYATSNLQIGVPSRFSGSGSGTDFTLTISSLQPEDFATYYCQQYRRLPWSFGQGTKLEIKR
notes: also called AB200_VH2-75_VK2-44
[7]
  Kd: 1.07 nM
[8]
  Kd: 5.53 nM
[15]
  Kd: 0.8 nM
[16]
  Kd: 5.22 nM
